Source: PMC11127761, “Development of a Neuropeptide Y-Sensitive Implantable Microelectrode for Continuous Measurements”

Molecular target: Neuropeptide Y (NPY) (UniProt P01303 29-64)
Test: electrochemical aptasensor (SWV, steady state); 1-1000 pg/mL; best NPY response of the three aptamers; aCSF pH 7.4 (composition by citation); SWV -0.4 to 0.0 V, 30 Hz; IPA 500 Hz in flow cell; assay temperature not stated
Conditions: protein: commercial; label: 3' methylene blue; immobilized on Pt via 5' thiol

B1: Aptamer 4.31 (ssDNA)
DNA: AGCAGCACAGAGGTCAGATGCAAACCACAGCCTGAGTGGTTAGCGTATGTCATTTACGGACCTATGCGTGCTACCGTGAA
modifications: 5' thiol C6 (disulfide reduced), 3' amino linker
binding result: binds
